PMC11061317 (Cell Research, 2024)
Ends that are not written are not given here.

Legend:
[1] = molecular target: T1, bacterially purified GST-tagged Rheb (UniProt Q15382 1-184); test: pull-down; recombinant Rheb (1 ug) and biotinylated C-tail peptide at a 1:5 molar ratio in 300 uL NETN buffer (40 mM Tris-HCl, 100 mM NaCl, 0.5% NP-40, 1 mM EDTA, 10% glycerol) with 15 uL streptavidin beads, 2 h at 4 °C; SDS-PAGE and immunoblot; details: both partners purified
T1 construct: Rheb, small G protein; The real-time BODIPY assays written under functional used His-tagged Rheb from E. coli instead of the GST-tagged protein; also called GST-Rheb; recombinant GST-tagged WT Rheb; source: E. coli BL21 (DE3), purified (Glutathione Sepharose 4B); not shown: GST, N-terminal, kept
T1 sequence (Q15382 whole entry): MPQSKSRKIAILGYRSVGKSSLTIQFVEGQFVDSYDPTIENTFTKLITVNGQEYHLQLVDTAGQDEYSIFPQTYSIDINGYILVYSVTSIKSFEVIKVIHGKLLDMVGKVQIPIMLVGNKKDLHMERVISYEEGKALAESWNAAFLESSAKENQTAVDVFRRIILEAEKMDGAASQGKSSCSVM

[2] = molecular target: T2, bacterially purified Rheb-G63V (UniProt Q15382 1-184, G63V); test: as above; details: both partners purified
T2 construct: source: E. coli BL21 (DE3), purified
T2 sequence (Q15382 whole entry G63V): as the sequence (Q15382 whole entry) above, with G63V counted along it

B1: biotinylated synthetic peptide of the ATP6AP1 C-tail (12) (peptide)
peptide: HKGPTISLTQIV
modifications: also: biotinylated, position not given here
notes: the last 12 residues of ATP6AP1; also called C12; synthetic C12 peptide; source: synthetic peptide (Genscript ProBio)
B1: binds [1].

B2: biotinylated synthetic peptide of the ATP6AP1 C-tail (30) (peptide)
peptide: TYGLHMILSLKTMDRFDDHKGPTISLTQIV
modifications: also: biotinylated, position not given here
notes: ATP6AP1 C-terminal 30 amino acids (C-tail), aa 441-470; also called synthetic C-tail peptide; WT C-tail peptide; source: synthetic peptide (Genscript ProBio)
B2: binds [2]; binds [1].
